Test results as given in publication PMC3783163, “Attachment site recognition and regulation of directionality by the serine integrases”.

T1: LI integrase CTD (Listeria innocua prophage (CLIP 11262; …, UniProt Q928V6 133-452)
T1 sequence: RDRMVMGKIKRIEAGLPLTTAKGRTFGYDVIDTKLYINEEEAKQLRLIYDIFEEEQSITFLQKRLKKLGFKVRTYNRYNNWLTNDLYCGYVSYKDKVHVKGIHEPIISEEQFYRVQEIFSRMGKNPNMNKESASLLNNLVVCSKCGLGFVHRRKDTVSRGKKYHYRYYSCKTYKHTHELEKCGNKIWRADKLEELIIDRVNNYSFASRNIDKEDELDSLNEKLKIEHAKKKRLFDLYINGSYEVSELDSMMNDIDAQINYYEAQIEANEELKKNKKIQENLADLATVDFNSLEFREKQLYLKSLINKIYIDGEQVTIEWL

B1: A118 attP P-arm half-site (crystal) (dsDNA)
DNA 1: GTTTAGTTCCTCGTTTTCTCTCGTTG
DNA 2: CCAACGAGAGAAAACGAGGAACTAAA

How the values were obtained:
[1] = test system: LI integrase ΔZD (Listeria innocua prophage (CLIP 11262; cloned from ATCC BAA-680D genomic DNA)); test: EMSA; details: EMSA: 20 mM Tris-HCl pH 7.4, 150 mM KCl, 2 mM DTT, 25 ug/ml BSA, 25 ug/ml salmon sperm DNA, 5% glycerol, ~1 nM DNA, 30 min at 30 C; 6% PAGE Tris-glycine pH …
[2] = test system: LI integrase WT (Listeria innocua prophage (CLIP 11262; cloned from ATCC BAA-680D genomic DNA)); test: EMSA; details: EMSA: 20 mM Tris-HCl pH 7.4, 150 mM KCl, 2 mM DTT, 25 ug/ml BSA, 25 ug/ml salmon sperm DNA, 5% glycerol, ~1 nM DNA, 30 min at 30 C; 6% PAGE Tris-glycine pH …
LI integrase CTD = molecular target: T1, LI integrase CTD; test: crystal structure (3.2 A); Zn2+ bound; 13 mM CaCl2 in drop; EMSA: 20 mM Tris-HCl pH 7.4, 150 mM KCl, 2 mM DTT, 25 ug/ml BSA, 25 ug/ml salmon sperm DNA, 5% glycerol, ~1 nM DNA, 30 min at 30 C; 6% PAGE Tris-glycine pH 8.3; details: protein: recombinant; tags: C-terminal His6 (LEH6); 5' overhangs 1 nt (G top, C bottom), 25 bp duplex

| Molecule | binding signal (fold weaker than WT) [1] | Kd [2] [nM] | binding result (LI integrase CTD) |
| --- | --- | --- | --- |
| LI attB 119-bp probe | 25 | 20 |  |
| LI attP 119-bp probe | 25 | 20 |  |
| B1 |  |  | binds |
